This series deals with MBD4 (methyl-CpG binding domain protein 4) (mouse, UniProt Q9Z2D7 1-554). Description: EMSA.
MBD4 (methyl-CpG binding domain protein 4), sequence (Q9Z2D7 whole entry, the tested form may be a part): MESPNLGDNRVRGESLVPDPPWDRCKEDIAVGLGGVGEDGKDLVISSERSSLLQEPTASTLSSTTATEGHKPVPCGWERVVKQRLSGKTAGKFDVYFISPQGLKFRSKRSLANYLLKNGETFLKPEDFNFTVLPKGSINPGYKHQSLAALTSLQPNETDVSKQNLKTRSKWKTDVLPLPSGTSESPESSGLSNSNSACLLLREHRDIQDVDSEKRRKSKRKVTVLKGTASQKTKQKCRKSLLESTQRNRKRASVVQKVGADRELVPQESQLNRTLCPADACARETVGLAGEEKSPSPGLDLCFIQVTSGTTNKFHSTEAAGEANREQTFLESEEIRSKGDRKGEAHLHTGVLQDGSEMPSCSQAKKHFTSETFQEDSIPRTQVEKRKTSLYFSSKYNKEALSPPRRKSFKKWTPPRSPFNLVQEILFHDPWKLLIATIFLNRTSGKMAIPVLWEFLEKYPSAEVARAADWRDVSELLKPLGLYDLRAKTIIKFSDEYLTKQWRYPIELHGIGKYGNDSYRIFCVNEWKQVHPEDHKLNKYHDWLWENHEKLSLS

B1: m5CpGGFP ssODN alone (ssDNA)
DNA: GGTCGGGGTAGCGGCTGAATCGCTGCACGCCGTAGGTCACGCG
modifications: m5C at position 21 (m5CpG); 3' cgcg phosphorothioate
On to B1, for which the binding result was “no binding”.
